According to US20070020743A1, “Undecaprenyl pyrophosphate synthase (upps)enzyme and methods of use” (priority 2001, published 2007):

Columns and labels:
[1] = tested on: CC(C)=CCC/C(C)=C/CC/C(C)=C/CO[P@@](=O)(O)OP(=O)(O)O; assay: purified protein, by the assay type; conditions: other: substrate Km of S. pneumoniae UPPS; pH optimum 7.5-8.0; pH 7.5; 25.0 °C
Protocol: The reaction was incubated at 25° C. for 25 min and stopped by addition of EDTA to 50 mM. The reaction was extracted with equal volume of 1-butanol and the radioactivity in the butanol phase was measured with a liquid scintillation counter (Shimizu, N., T. Koyama, and K. Ogura. (1998) J. Biol. Chem. 273:19476-19481).

[2] = tested on: C=C(C)CCO[P@@](=O)(O)OP(=O)(O)O; assay: purified protein, by the assay type; conditions: other: substrate Km of S. pneumoniae UPPS; pH optimum 7.5-8.0; pH 7.5; 25.0 °C

S. pneumoniae UPPS (Streptococcus pneumoniae TIGR4)
Km [1]: 0.5 µM | Km [2]: 3.6 µM
